The values that follow come from patent US20060222643A1 (Chugai, published 2006).

No end group written: not given here.

For experiment [1], the target named is T1, MG10 (Gln213 to Ala231)-GST fusion protein (human, also: fused with GST).
T1 construct: As MG1; also called MG10-GST fusion protein; GST fusion protein containing MG10; not shown: glutathione-S-transferase of vector pGEX-4T-3 (Amersham Biosciences)
T1 chain: QPTMPWQDGPKQTSPSREA
Briefly: SPR, Biacore 3000, MG10-GST immobilized on CM5, Bivalent analyte model (constants as for the monovalent antibody), triplicate. On the procedure: The Sensor Chip CM5 (Biacore) was placed in Biacore 3000 (Biacore), and MG10-GST fusion protein was immobilized onto the chip by amine-coupling methods. HBS-EP Buffer (Biacore) was used as the running buffer, and the flow rate was 20 μL/min. 5.5 to 175.0 nM of VB22B IgG solution was prepared using HBS-EP Buffer, and injected over each of the chip surfaces for 2 min to obtain the binding region at the respective concentrations. Then, dissociation region for the 2 minutes was measured. VB22B IgG bound to the MG10-GST fusion protein on the sensor chip was removed by injecting 20 mM HCl over the sensor chip for 1 min, and the chip was recovered. Similarly, 4.7 to 150.1 nM of VB22B sc(Fv)2, 5.3 to 168.9 nM of hVB22B q-wz5 sc(Fv)2, and 4.9 to 156.8 nM of hVB22B u2-wz4 sc(Fv)2 were prepared and injected over the chip surfaces onto which MG10-GST fusion protein was immobilized, and the measurement was carried out.
All the antibodies used were bivalent antibodies, and thus the sensorgrams at each concentration were obtained in the presence of both monovalent and bivalent bindings. In this context, the reaction rate constant was determined as that for the monovalent antibody by analysis using the Bivalent analyte model of BIAevaluation ver.3.1 software (Biacore). The above analysis was carried out in triplicates for each antibody. The binding rate constant (ka), dissociation rate constant (kd), and dissociation constant (KD) were determined as those for the monovalent antibody by the procedure described above. The constants are indicated below in Table 1.

The target in experiment [2] is T2, cynomolgus monkey Mpl expressed on CHO cells (CHO-monkey Mpl) (cynomolgus monkey, UniProt P40238 26-635 (human entry)).
T2 construct: pCXND3-monkey Mpl-His in CHO-DG44; also called monkey Mpl-His
T2 chain: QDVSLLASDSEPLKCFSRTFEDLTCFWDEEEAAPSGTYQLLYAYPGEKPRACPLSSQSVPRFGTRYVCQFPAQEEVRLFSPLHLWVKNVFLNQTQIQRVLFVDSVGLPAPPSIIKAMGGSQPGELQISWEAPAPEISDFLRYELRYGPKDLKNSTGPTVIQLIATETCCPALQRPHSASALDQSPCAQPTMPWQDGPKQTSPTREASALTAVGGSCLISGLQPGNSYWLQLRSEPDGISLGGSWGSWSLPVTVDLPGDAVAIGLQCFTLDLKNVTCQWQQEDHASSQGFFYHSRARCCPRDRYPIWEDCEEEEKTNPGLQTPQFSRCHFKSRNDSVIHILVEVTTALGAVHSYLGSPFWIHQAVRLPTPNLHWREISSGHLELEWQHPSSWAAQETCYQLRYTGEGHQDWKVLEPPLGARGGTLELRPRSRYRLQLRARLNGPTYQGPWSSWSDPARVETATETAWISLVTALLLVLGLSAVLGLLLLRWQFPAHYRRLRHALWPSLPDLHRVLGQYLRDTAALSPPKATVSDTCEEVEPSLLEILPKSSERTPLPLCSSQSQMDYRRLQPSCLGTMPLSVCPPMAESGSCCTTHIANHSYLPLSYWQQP
Briefly: flow cytometry on CHO cells.

The target of experiment [3] is T3, human Mpl expressed on BaF3 cells (BaF3-human Mpl) (human, UniProt P40238 26-635).
T3 sequence: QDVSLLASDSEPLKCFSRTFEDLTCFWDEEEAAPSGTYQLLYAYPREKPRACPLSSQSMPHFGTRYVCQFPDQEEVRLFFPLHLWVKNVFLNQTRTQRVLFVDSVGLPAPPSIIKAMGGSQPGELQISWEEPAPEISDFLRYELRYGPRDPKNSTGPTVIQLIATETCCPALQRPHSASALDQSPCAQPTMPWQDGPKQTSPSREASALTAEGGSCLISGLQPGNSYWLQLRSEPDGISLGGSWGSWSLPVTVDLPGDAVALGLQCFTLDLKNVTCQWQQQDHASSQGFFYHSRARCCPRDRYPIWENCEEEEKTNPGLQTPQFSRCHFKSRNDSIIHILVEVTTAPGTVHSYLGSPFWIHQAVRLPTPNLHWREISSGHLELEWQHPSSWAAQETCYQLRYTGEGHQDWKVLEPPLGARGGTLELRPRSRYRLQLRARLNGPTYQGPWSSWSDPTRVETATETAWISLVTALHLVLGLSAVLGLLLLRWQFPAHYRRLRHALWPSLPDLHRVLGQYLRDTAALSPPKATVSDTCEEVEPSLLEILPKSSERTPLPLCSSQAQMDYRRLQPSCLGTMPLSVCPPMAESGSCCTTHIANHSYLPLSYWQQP
Briefly: cell-based or functional assay.

B1: anti-human Mpl antibody VB22B IgG (antibody, V domains shown)
VH: QVQLQQSGPELVKPGASVKISCKASGYAFTNSWMNWVKQRPGKGLEWIGRIYPGDGETIYNGKFRVKATLTADKSSSTAYMDISSLTSEDSAVYFCARGYDDYSFAYWGQGTLVTVSA
VL: DIVMTQAAPSIPVTPGESVSISCRSSKSLLHSNGNTYLYWFLQRPGQSPQLLIYRMSNLASGVPDRFSGSGSGTAFTLRISRVEAEDVGVYYCMQHIEYPFTFGSGTKLEIK
notes: also called murine antibody VB22B
In experiment [1], B1 had a Kd of 11.5 nM, an off-rate constant (koff) of 0.0011 s⁻¹ and a kon of 96000 M⁻¹ s⁻¹. For the same molecule, in experiment [2], the binding result is on record as “binds”. In addition, the “TPO-like agonistic activity, EC50 (growth of BaF3-human Mpl, WST-8)” value in experiment [3] is greater than 30 nM.
